In article PMC2726290, “Decoding of Methylated Histone H3 Tail by the Pygo-BCL9 Wnt Signaling Complex” (Molecular Cell, 2008):

System: pygo null mutant clones in wing discs
Assay: Rescue assays in Drosophila pygo null mutant clones
Type: in vivo
Details: for rescue of pygo mutant phenotypes (notches and bristle defects): anterior wing margin of adult flies bearing pygo mutant clones, overexpression; for rescue of senseless expression: overexpression by GAL4 system in pygo null mutant wing disc clones, third instar larvae
Source text: To test whether the binding of Pygo to H3K4me is important for its function in vivo, we conducted rescue assays in Drosophila ([de la Roche and Bienz, 2007]). We introduced a point mutation into V757 (in EVND) of Drosophila Pygo, which corresponds to V350 of hPHD that lines its K4me pocket (Figure 4B) and whose mutation drastically reduces its binding to H3K4me3 (Figure 4E). We then generated pygo null mutant clones in wing discs, one of the best-characterized Wingless-responsive tissues whose development depends on Pygo function ([Belenkaya et al., 2002; de la Roche and Bienz, 2007; Kramps et al., 2002; Parker et al., 2002; Thompson et al., 2002]), and we used the GAL4 system to overexpress the Pygo-V757E mutant in these clones, to test its rescue activity in this tissue.
HA-tagged Pygo-V757E was constructed in pUAST, and multiple independent transformant lines were isolated, as described previously for WT HA-Pygo ([Townsley et al., 2004b]). Two different lines were each tested for rescue activity of pygo null mutant clones in the wing disc, as described ([de la Roche and Bienz, 2007]).

Molecule | rescue of pygo mutant phenotypes (notches and bristle defects) | rescue of senseless expression
WT Pygo: overexpressed wild-type HA-tagged Drosophila Pygo (protein, UniProt Q9V9W8 1-815, looked up, HA tag) Protein pygopus: MTHNLGMAPYRLPGPAGGLCPPDFKPPPPTDIISAPSNPKKRRKTSSAANSAAAVAAAAAAAAAANSMQQQQAPPTPQDLLPPPPMGGFGDTIIASNPFDDSPQVSAMSSSAAAAMAAMNQMGGGPGGGHFGGGGPGGHPHWEDRMGMGGGPPPPPHMHPHMHPHHPGGPMGHPHGPHPHMGGPPPMRGMSPMHPHQMGPGPGVGLPPHMNHGRPGGPGGPGGPVPMGSPMGGIAGMGGMSPMGGMGGPSISPHHMGMGGLSPMGGGPNGPNPRAMQGSPMGGPGQNSPMNSLPMGSPMGNPIGSPLGPPSGPGPGNPGNTGGPQQQQQQPPQPPMNNGQMGPPPLHSPLGNGPTGHGSHMPGGPIPGPGPGPGGLVGPGGISPAHGNNPGGSGNNMLGGNPGGGNSNNNGSNTSNASNNNQNPHLSPAAGRLGVPTSMQSNGPSVSSVASSSVPSPATPTLTPTSTATSMSTSVPTSSPAPPAMSPHHSLNSAGPSPGMPNSGPSPLQSPAGPNGPNNNNSNNNNGPMMGQMIPNAVPMQHQQHMGGGPPGHGPGPMPGMGMNQMLPPQQPSHLGPPHPNMMNHPHHPHHHPGGPPPHMMGGPGMHGGPAGMPPHMGGGPNPHMMGGPHGNAGPHMGHGHMGGVPGPGPGPGGMNGPPHPHMSPHHGHPHHHHNPMGGPGPNMFGGGGGGPMGPGGPMGNMGPMGGGPMGGPMGVGPKPMTMGGGKMYPPGQPMVFNPQNPNAPPIYPCGMCHKEVNDNDEAVFCESGCNFFFHRTCVGLTEAAFQMLNKEVFAEWCCDKCVSSKHIPMVKFKC | rescued all pygo mutant phenotypes | restored expression of senseless
Pygo-V757E: HA-tagged Drosophila Pygo with point mutation in V757 (in EVND) (protein, UniProt Q9V9W8 1-815, looked up, variant V757E, HA tag) Protein pygopus: MTHNLGMAPYRLPGPAGGLCPPDFKPPPPTDIISAPSNPKKRRKTSSAANSAAAVAAAAAAAAAANSMQQQQAPPTPQDLLPPPPMGGFGDTIIASNPFDDSPQVSAMSSSAAAAMAAMNQMGGGPGGGHFGGGGPGGHPHWEDRMGMGGGPPPPPHMHPHMHPHHPGGPMGHPHGPHPHMGGPPPMRGMSPMHPHQMGPGPGVGLPPHMNHGRPGGPGGPGGPVPMGSPMGGIAGMGGMSPMGGMGGPSISPHHMGMGGLSPMGGGPNGPNPRAMQGSPMGGPGQNSPMNSLPMGSPMGNPIGSPLGPPSGPGPGNPGNTGGPQQQQQQPPQPPMNNGQMGPPPLHSPLGNGPTGHGSHMPGGPIPGPGPGPGGLVGPGGISPAHGNNPGGSGNNMLGGNPGGGNSNNNGSNTSNASNNNQNPHLSPAAGRLGVPTSMQSNGPSVSSVASSSVPSPATPTLTPTSTATSMSTSVPTSSPAPPAMSPHHSLNSAGPSPGMPNSGPSPLQSPAGPNGPNNNNSNNNNGPMMGQMIPNAVPMQHQQHMGGGPPGHGPGPMPGMGMNQMLPPQQPSHLGPPHPNMMNHPHHPHHHPGGPPPHMMGGPGMHGGPAGMPPHMGGGPNPHMMGGPHGNAGPHMGHGHMGGVPGPGPGPGGMNGPPHPHMSPHHGHPHHHHNPMGGPGPNMFGGGGGGPMGPGGPMGNMGPMGGGPMGGPMGVGPKPMTMGGGKMYPPGQPMVFNPQNPNAPPIYPCGMCHKEENDNDEAVFCESGCNFFFHRTCVGLTEAAFQMLNKEVFAEWCCDKCVSSKHIPMVKFKC | WT Pygo but not Pygo-V757E rescued all pygo mutant phenotypes | no rescue whatsoever was observed
